Our source for the EC50, luciferase reporter-based assay (receptor activation) values is patent US20250066509A1.

Common to all, as to test: cell-based or functional assay
Test [1] deals with cynomolgus monkey FGFR1c/βKlotho receptor (cynomolgus monkey).
The target of test [2] is human FGFR1c/βKlotho receptor (human) (UniProt P11362).
Test [3] concerns the target human FGFR2c/βKlotho receptor (human) (UniProt P21802).
In test [4] the target is human FGFR3c/βKlotho receptor (human) (UniProt P22607).
Sequence of human FGFR3c/βKlotho receptor (human) (P22607 23-806, chain 1 of 2): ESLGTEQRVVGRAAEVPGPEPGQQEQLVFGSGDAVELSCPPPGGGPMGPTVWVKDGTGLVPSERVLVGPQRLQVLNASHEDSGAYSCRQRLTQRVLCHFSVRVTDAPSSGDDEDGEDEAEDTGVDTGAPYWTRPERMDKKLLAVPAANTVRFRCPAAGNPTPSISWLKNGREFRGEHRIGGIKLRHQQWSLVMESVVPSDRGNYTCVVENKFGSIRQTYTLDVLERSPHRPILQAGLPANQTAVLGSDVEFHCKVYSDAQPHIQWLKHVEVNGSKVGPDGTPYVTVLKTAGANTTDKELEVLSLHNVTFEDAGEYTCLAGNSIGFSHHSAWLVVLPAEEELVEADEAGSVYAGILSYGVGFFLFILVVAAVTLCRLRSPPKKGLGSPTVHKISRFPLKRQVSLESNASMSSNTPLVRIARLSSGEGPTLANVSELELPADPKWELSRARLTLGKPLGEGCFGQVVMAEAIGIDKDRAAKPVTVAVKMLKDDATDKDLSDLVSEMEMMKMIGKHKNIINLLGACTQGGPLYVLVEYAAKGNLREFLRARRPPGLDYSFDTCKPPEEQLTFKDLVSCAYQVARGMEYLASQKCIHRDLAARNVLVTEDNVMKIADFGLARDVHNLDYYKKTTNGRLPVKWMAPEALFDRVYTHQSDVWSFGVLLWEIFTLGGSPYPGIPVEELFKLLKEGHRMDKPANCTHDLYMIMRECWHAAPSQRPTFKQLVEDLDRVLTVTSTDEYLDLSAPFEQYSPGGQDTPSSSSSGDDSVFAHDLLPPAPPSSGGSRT
Sequence of human FGFR3c/βKlotho receptor (human) (chain, as listed by the source, chain 2 of 2): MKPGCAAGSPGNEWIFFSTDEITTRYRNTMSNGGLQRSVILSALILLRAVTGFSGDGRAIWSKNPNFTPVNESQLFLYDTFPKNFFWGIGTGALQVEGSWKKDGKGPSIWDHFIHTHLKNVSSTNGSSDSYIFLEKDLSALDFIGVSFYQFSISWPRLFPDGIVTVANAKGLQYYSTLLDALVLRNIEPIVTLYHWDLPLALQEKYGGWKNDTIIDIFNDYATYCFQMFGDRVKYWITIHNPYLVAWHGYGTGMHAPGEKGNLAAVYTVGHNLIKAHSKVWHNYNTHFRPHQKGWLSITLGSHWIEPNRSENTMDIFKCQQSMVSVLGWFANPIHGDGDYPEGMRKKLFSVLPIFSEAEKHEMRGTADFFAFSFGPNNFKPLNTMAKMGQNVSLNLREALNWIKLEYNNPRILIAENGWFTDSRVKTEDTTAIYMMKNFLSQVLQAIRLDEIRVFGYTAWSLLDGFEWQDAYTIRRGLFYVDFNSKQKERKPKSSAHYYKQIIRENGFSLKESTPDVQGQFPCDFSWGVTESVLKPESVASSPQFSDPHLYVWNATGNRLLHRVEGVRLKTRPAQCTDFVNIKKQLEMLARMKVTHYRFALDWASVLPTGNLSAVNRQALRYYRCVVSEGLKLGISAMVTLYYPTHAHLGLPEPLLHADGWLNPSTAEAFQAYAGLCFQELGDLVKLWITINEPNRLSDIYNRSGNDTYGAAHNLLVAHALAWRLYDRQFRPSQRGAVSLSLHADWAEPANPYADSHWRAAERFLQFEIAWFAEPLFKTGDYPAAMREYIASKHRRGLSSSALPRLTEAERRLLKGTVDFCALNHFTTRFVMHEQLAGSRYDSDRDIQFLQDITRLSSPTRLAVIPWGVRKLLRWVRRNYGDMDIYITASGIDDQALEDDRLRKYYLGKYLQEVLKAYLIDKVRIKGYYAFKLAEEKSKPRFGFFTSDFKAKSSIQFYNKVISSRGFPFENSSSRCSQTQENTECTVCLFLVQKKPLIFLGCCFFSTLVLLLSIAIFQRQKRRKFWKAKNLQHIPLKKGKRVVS
The target in test [5] is human FGFR4/βKlotho receptor (human) (UniProt P22455).
Sequence of human FGFR4/βKlotho receptor (human) (P22455 22-802, chain 1 of 2): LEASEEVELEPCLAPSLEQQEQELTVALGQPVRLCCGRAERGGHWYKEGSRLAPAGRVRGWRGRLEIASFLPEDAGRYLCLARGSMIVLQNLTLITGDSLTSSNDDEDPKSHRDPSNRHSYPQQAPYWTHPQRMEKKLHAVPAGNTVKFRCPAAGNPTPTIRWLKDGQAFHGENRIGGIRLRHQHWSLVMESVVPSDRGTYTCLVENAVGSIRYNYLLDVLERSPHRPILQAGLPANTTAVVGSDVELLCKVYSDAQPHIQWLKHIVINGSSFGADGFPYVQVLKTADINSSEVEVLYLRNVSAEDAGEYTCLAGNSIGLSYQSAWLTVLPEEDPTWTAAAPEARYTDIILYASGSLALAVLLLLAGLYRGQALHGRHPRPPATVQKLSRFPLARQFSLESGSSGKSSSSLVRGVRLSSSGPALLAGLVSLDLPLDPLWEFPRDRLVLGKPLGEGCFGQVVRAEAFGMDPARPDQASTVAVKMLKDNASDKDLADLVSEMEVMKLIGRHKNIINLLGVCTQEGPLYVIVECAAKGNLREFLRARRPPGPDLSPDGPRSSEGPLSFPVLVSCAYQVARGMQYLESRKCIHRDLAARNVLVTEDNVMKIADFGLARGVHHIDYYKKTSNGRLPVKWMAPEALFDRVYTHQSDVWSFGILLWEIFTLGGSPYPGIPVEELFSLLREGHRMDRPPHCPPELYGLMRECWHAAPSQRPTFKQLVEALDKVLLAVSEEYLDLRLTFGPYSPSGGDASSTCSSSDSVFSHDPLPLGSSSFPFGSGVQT
Sequence of human FGFR4/βKlotho receptor (human) (chain, as listed by the source, chain 2 of 2): as the sequence (chain, as listed by the source, chain 2 of 2) above

Sequence of human FGFR2c/βKlotho receptor (human) (P21802 22-821, chain 1 of 2): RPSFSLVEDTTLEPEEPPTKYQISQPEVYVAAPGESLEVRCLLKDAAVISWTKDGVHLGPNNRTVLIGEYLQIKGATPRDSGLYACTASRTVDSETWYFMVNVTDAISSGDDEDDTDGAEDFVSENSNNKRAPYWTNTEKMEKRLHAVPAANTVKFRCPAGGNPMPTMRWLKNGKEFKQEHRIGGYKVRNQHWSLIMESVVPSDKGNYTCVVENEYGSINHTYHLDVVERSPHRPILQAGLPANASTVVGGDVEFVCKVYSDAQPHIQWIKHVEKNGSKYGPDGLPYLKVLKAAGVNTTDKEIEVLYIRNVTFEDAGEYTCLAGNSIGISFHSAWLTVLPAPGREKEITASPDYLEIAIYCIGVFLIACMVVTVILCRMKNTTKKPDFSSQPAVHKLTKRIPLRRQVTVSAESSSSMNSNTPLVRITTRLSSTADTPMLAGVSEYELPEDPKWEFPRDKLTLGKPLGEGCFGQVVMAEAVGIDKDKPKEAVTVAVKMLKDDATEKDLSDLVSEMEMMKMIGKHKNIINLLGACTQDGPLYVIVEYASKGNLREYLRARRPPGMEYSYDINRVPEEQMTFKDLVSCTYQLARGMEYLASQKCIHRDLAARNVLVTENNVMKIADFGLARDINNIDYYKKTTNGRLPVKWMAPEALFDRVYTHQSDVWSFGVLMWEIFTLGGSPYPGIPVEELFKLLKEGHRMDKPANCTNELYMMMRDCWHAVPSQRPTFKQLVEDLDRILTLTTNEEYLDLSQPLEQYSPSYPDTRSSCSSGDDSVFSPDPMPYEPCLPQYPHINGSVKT
Sequence of human FGFR2c/βKlotho receptor (human) (chain, as listed by the source, chain 2 of 2): as the sequence (chain, as listed by the source, chain 2 of 2) above
Sequence of human FGFR1c/βKlotho receptor (human) (P11362 22-822, chain 1 of 2): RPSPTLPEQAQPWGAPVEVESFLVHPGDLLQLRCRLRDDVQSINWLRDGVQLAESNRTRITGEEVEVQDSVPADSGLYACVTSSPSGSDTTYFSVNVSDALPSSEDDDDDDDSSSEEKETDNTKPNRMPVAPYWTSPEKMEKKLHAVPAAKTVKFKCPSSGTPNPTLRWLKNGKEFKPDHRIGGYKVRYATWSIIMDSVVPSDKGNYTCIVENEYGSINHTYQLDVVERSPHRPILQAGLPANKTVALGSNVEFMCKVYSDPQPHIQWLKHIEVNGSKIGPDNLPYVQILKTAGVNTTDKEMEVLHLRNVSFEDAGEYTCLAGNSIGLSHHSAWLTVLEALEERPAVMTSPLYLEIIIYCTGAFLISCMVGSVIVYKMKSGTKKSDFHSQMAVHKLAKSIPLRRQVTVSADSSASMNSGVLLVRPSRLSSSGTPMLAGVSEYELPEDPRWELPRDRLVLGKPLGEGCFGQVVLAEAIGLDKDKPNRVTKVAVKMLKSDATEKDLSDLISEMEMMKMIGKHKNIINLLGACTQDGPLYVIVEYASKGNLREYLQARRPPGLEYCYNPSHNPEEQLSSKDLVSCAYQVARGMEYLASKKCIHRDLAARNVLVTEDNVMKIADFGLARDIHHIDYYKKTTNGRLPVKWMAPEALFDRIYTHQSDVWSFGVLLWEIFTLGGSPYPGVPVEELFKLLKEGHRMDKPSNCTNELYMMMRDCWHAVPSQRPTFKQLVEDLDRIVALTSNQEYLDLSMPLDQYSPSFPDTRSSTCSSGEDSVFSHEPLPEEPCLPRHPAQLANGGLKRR
Sequence of human FGFR1c/βKlotho receptor (human) (chain, as listed by the source, chain 2 of 2): as the sequence (chain, as listed by the source, chain 2 of 2) above

On to “FGF19 (from UniProt O95750 25-216) (ligand)”, for which the EC50, luciferase reporter-based assay (receptor activation) worked out at 2.23 nM in test [1]; 0.41 nM in test [2]; 0.27 nM in test [3]; 0.3 nM in test [4]; 0.05 nM in test [5].
